Results on one molecule are retold here after PMC9891502.

In the test the target is CMV gB ectodomain protein (human cytomegalovirus) (UniProt P13201).

B1: TRL345 (antibody, V domains shown)
VH: QVQLVESGGGVVQPGRSLRLSCAASGFTFSDYNMHWVRQAPGKGLEWVAVISIDGTYKYSADSVAGRFSLSRDNSKNTLYLQMNSLRPDDTAIYYCARDGRSVGGFSGILDPWGQGTLVTVSS
VL: EIVMTQSPATLSLSPGDRATLSCRASQSVGSYLAWYQQKPGQAPRLLMYDSSVRATGIPARFSGSGSGTDFTLTISSLEPEDFAVYYCQQRNNWPPLTFGGGTKVEIK
B1: the neutralization of CMV strain AD169rUL131-GFP on ARPE epithelial cells, IC50 was determined as 0.3 µg/mL; the neutralization of CMV strain AD169rUL131-GFP on MRC-5 fibroblasts, IC50 was determined as 0.24 µg/mL; the neutralization of CMV strain Toledo on MRC-5 fibroblasts, IC50 was found to be 0.19 µg/mL; the neutralization of CMV strain Towne on MRC-5 fibroblasts, IC50 worked out at 0.21 µg/mL.
